Experimental data: PMC3094505
Where two headings read alike, the source gives them in different places.

Columns and labels:
[1] = target: Fluoresceinated Nav1.2IQp, peptide of residues 1901-1927 of the Nav1.2 alpha-subunit; test: fluorescence polarisation
[2] = target: Fluoresceinated Nav1.2IQp, peptide of residues 1901-1927 of the Nav1.2 alpha-subunit; test: fluorescence polarisation; remark: listed apart in the source

With “Paramecium calmodulin N-domain (residues 1-80) (from UniProt P07463 2-81) (domain or fragment)” as the substance, how does the Kd [1] read?
The Kd was 70.8 µM.

And the Kd [2]?
The Kd was 1.64 µM.
